Common to all, as to test: cell-based or functional assay
Test [1] has as its target IL-18 polypeptide SEQ ID NO: 9 (E6K, C38A, K53A, C68A, D98C) (human) (UniProt Q14116).
Test [2] concerns the target C163 (V11I, C38A, C76A, Q103K, C127A) (human) (UniProt Q14116).
In test [3] the target is C162 (K8E, V11I, C38A, C76A, Q103R, C127A) (human) (UniProt Q14116).
The target in test [4] is C167 (V11I, C38A, C76A, S105I, C127A) (human) (UniProt Q14116).
The target in test [5] is C143 (V11I, C38A, K53A, C76A, C127A) (human) (UniProt Q14116).
C143 (V11I, C38A, K53A, C76A, C127A) (human), sequence (Q14116 37-193 V47I/C74A/K89A/C112A/C163A): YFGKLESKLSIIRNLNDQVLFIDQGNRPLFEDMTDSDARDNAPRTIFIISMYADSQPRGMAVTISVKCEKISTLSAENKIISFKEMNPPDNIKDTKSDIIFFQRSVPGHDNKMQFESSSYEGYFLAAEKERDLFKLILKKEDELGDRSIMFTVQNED
In test [6] the target is IL-18 polypeptide SEQ ID NO: 54 (E06K, K53A, C38S, C68S, C76S, C127S, K70C) (human) (UniProt Q14116).
IL-18 polypeptide SEQ ID NO: 54 (E06K, K53A, C38S, C68S, C76S, C127S, K70C) (human), sequence (Q14116 37-193 E42K/C74S/K89A/C104S/K106C/C112S/C163S): as the sequence (Q14116 37-193 V47I/C74A/K89A/C112A/C163A) above, with E6K, I11V, A38S, C68S, K70C, A76S, A127S counted along it
Test [7] has as its target IL-18 polypeptide SEQ ID NO: 55 (K53A, T63A, C38S, C68S, C76S, C127S, K70C) (human) (UniProt Q14116).
Test [8] deals with C155 (V11I, C38A, D40A, K53A, C76A, C127A) (human) (UniProt Q14116).
C155 (V11I, C38A, D40A, K53A, C76A, C127A) (human), sequence (Q14116 37-193 V47I/C74A/D76A/K89A/C112A/C163A): as the sequence (Q14116 37-193 V47I/C74A/K89A/C112A/C163A) above, with D40A counted along it
In test [9] the target is C145 (V11I, C38A, K53A, S55A, C76A, C127A) (human) (UniProt Q14116).
C145 (V11I, C38A, K53A, S55A, C76A, C127A) (human), sequence (Q14116 37-193 V47I/C74A/K89A/S91A/C112A/C163A): as the sequence (Q14116 37-193 V47I/C74A/K89A/C112A/C163A) above, with S55A counted along it
Test [10] has as its target C159 (V11I, C38A, K53A, C76A, H109A, C127A) (human) (UniProt Q14116).
In test [11] the target is IL-18 polypeptide SEQ ID NO: 40 (E06K, S55A) (human) (UniProt Q14116).
IL-18 polypeptide SEQ ID NO: 40 (E06K, S55A) (human), sequence (Q14116 37-193 E42K/S91A): as the sequence (Q14116 37-193 V47I/C74A/K89A/C112A/C163A) above, with E6K, I11V, A38C, A53K, S55A, A76C, A127C counted along it
In test [12] the target is C146 (SEQ ID NO: 79; V11I, C38A, M51G, K53A, C76A, C127A) (human) (UniProt Q14116).
C146 (SEQ ID NO: 79; V11I, C38A, M51G, K53A, C76A, C127A) (human), sequence (Q14116 37-193 V47I/C74A/M87G/K89A/C112A/C163A): as the sequence (Q14116 37-193 V47I/C74A/K89A/C112A/C163A) above, with M51G counted along it
In test [13] the target is C151 (V11I, D35A, C38A, K53A, C76A, C127A) (human) (UniProt Q14116).
C151 (V11I, D35A, C38A, K53A, C76A, C127A) (human), sequence (Q14116 37-193 V47I/D71A/C74A/K89A/C112A/C163A): as the sequence (Q14116 37-193 V47I/C74A/K89A/C112A/C163A) above, with D35A counted along it
The target of test [14] is IL-18 polypeptide SEQ ID NO: 4 (E6K, C38A, K53A, C68A, M86C) (human) (UniProt Q14116).
IL-18 polypeptide SEQ ID NO: 4 (E6K, C38A, K53A, C68A, M86C) (human), sequence (Q14116 other isoform, or with tags, fused parts or gaps C38A K53A C68A M86C C38A K53A C68A M86C): as the sequence (Q14116 37-193 V47I/C74A/K89A/C112A/C163A) above, with E6K, I11V, C68A, A76C, M86C, A127C counted along it
Test [15] has as its target IL-18 polypeptide SEQ ID NO: 42 (E06K, K53A, S55A, T63A) (human) (UniProt Q14116).
The target in test [16] is IL-18 polypeptide SEQ ID NO: 43 (E06K, K53A, S55A, Y01G) (human) (UniProt Q14116).
IL-18 polypeptide SEQ ID NO: 43 (E06K, K53A, S55A, Y01G) (human), sequence (Q14116 37-193 Y37G/E42K/K89A/S91A): as the sequence (Q14116 37-193 V47I/C74A/K89A/C112A/C163A) above, with Y1G, E6K, I11V, A38C, S55A, A76C, A127C counted along it
For test [17], the target named is C166 (V11I, C38A, S55T, C76A, C127A) (human) (UniProt Q14116).
C166 (V11I, C38A, S55T, C76A, C127A) (human), sequence (Q14116 37-193 V47I/C74A/S91T/C112A/C163A): as the sequence (Q14116 37-193 V47I/C74A/K89A/C112A/C163A) above, with A53K, S55T counted along it
In test [18] the target is IL-18 polypeptide SEQ ID NO: 5 (E6K, V11I, C38A, K53A, T63A, C68A, C76A, M86C, C127A) (human) (UniProt Q14116).
IL-18 polypeptide SEQ ID NO: 5 (E6K, V11I, C38A, K53A, T63A, C68A, C76A, M86C, C127A) (human), sequence (Q14116 other isoform, or with tags, fused parts or gaps with the stated changes): as the sequence (Q14116 37-193 V47I/C74A/K89A/C112A/C163A) above, with E6K, T63A, C68A, M86C counted along it
Test [19] concerns the target IL-18 polypeptide SEQ ID NO: 52 (E06K, T63A) (human) (UniProt Q14116).
Test [20] has as its target IL-18 polypeptide SEQ ID NO: 36 (K53A) (human) (UniProt Q14116).

C163 (V11I, C38A, C76A, Q103K, C127A) (human), sequence (Q14116 37-193 V47I/C74A/C112A/Q139K/C163A): as the sequence (Q14116 37-193 V47I/C74A/K89A/C112A/C163A) above, with A53K, Q103K counted along it
IL-18 polypeptide SEQ ID NO: 42 (E06K, K53A, S55A, T63A) (human), sequence (Q14116 37-193 E42K/K89A/S91A/T99A): as the sequence (Q14116 37-193 V47I/C74A/K89A/C112A/C163A) above, with E6K, I11V, A38C, S55A, T63A, A76C, A127C counted along it
C159 (V11I, C38A, K53A, C76A, H109A, C127A) (human), sequence (Q14116 37-193 V47I/C74A/K89A/C112A/H145A/C163A): as the sequence (Q14116 37-193 V47I/C74A/K89A/C112A/C163A) above, with H109A counted along it
IL-18 polypeptide SEQ ID NO: 55 (K53A, T63A, C38S, C68S, C76S, C127S, K70C) (human), sequence (Q14116 37-193 C74S/K89A/T99A/C104S/K106C/C112S/C163S): as the sequence (Q14116 37-193 V47I/C74A/K89A/C112A/C163A) above, with I11V, A38S, T63A, C68S, K70C, A76S, A127S counted along it
IL-18 polypeptide SEQ ID NO: 52 (E06K, T63A) (human), sequence (Q14116 37-193 E42K/T99A): as the sequence (Q14116 37-193 V47I/C74A/K89A/C112A/C163A) above, with E6K, I11V, A38C, A53K, T63A, A76C, A127C counted along it
C167 (V11I, C38A, C76A, S105I, C127A) (human), sequence (Q14116 37-193 V47I/C74A/C112A/S141I/C163A): as the sequence (Q14116 37-193 V47I/C74A/K89A/C112A/C163A) above, with A53K, S105I counted along it
IL-18 polypeptide SEQ ID NO: 9 (E6K, C38A, K53A, C68A, D98C) (human), sequence (Q14116 other isoform, or with tags, fused parts or gaps C38A K53A C68A D98C C38A K53A C68A D98C): as the sequence (Q14116 37-193 V47I/C74A/K89A/C112A/C163A) above, with E6K, I11V, C68A, A76C, D98C, A127C counted along it
C162 (K8E, V11I, C38A, C76A, Q103R, C127A) (human), sequence (Q14116 other isoform, or with tags, fused parts or gaps V11I C38A C76A Q103R C127A V11I C38A C76A Q103R C127A): as the sequence (Q14116 37-193 V47I/C74A/K89A/C112A/C163A) above, with K8E, A53K, Q103R counted along it
IL-18 polypeptide SEQ ID NO: 36 (K53A) (human), sequence (Q14116 37-193 K89A): as the sequence (Q14116 37-193 V47I/C74A/K89A/C112A/C163A) above, with I11V, A38C, A76C, A127C counted along it

With “Fc-fused human IL-18 binding protein isoform a (IL-18BPa) (from UniProt O95998 31-194) (Fc fusion)”, the IC50 (nM), IL-18BPa inhibition of IFNγ induction, NK-92 cells in test [1] was 961 nM; in [2], 0.456 nM; in test [3] it was 0.823 nM; in [4], 0.176 nM; in [5] it was 7.52 nM; in [6] it was 23.5 nM. Besides, the IC50 (nM), IL-18BPa inhibition of IFNγ induction, NK-92 cells was above 1000 nM in test [7]; 0.681 nM in [8]; 733 nM in test [9]; 3.18 nM in test [10]; 15 nM in test [11]; 47.6 nM in test [12]. The IC50 (nM), IL-18BPa inhibition of IFNγ induction, NK-92 cells stood at 7.85 nM in [13]; 396 nM in test [14]; 1060 nM in test [15]; 27.8 nM in test [16]; 0.809 nM in test [17]; 62.4 nM in test [18]. Moreover, the IC50 (nM), IL-18BPa inhibition of IFNγ induction, NK-92 cells in test [19] is 47.1 nM; in test [20], 27.3 nM.
